From paper PMC9603416

Target: T1, RR07-6xHis (Streptococcus pneumoniae R6) (UniProt Q8DRF5)
T1 sequence: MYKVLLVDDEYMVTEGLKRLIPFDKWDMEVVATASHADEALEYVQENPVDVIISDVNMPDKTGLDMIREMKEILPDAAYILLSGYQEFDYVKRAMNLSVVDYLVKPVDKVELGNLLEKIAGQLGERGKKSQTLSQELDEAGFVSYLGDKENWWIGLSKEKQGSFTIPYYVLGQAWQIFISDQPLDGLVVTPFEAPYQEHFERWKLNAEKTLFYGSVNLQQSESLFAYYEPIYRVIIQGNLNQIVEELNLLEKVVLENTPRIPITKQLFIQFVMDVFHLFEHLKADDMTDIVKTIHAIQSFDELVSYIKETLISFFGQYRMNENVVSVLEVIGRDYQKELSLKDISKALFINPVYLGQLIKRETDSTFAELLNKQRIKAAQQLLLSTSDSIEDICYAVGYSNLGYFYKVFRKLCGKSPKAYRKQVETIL
Test: EMSA
Conditions: EMSA: 1 nM dsDNA probe, increasing RR07, binding buffer 20 mM Tris-Cl (rest of the buffer, pH and temperature not in the material)

Sequence | binding
CACTGGTCTGGGGCACAAAGTAATTCATCCCAAAAGGCACGCCTGTGTATGGCAGGGTATTTCCCCGAGAGAAGGCATGCTTGCTAGCAGTACCAAAGCGGGTATCGATGGTTTCAAGTAGTGGTTTCATAGTCTTTCCTTTAGCTGTTTTTCTACATTATATCAGAAAAAGAGGGCCTTTAGAAAAGGAGTTTTAAAGATAACTATTTTGTAGAAAAATGACTATCATTTGTGTATGTATTTTCTGTCTCAAAAGCTATATACTGAACATGAAACTTGTTTGAAAGAGGGAATTGCACG (double strand) [Pgh125] | no binding
TGCAAAACCTCCTGATTGCATTGTTATATTGATAGCGATTATATAAATCAACGCCTTTATTTTATTTCTTATATTAACGAGAGTCAAGAGGAGATGACAAAAAACTATAATAAGTATAAAAAAATATAAAATTTAAACTTAAGATTTCAGATTGGTCGAAAAAATACATATATATATCTAGTATAATTTTTGGTTCTATTTCTATAAAATATTCCACAAATTATAGAATCTTCCAAAAATAGGTAAGCGCTACCTTTTTGGTGTGGTATAATAAGC (double strand) [PstrH] | no binding
